Test results published in paper PMC11334519.

Tests used:
[1] = molecular target: 6×Myc-tagged ORF24 BD [1–400 aa]; assay: pull-down
3×FLAG-ORF66 = assay: pull-down
[2] = 293T cells cotransfected, lysates pulled down with S-protein-agarose capturing 2×S-ORF34, parent: 1.00

Substance	ratio to parent [1, 2]	ratio to parent ([1]; parent: 1.000)	ratio to parent (3×FLAG-ORF66; [2])	ratio to parent (3×FLAG-ORF66; parent: 1.000)
2×S-tagged KSHV ORF34 WT C256A	0.11	0.109	–	–
2×S-tagged KSHV ORF34 WT C175A	0.34	0.345	0.04	0.039
2×S-tagged KSHV ORF34 WT Q264A; N265A	0.67	0.665	–	–
2×S-tagged KSHV ORF34 WT E41A; T42A	0.88	0.877	1.03	1.03
2×S-tagged KSHV ORF34 WT L188A; L189A	0.5	0.503	–	–
2×S-tagged KSHV ORF34 WT F47A	0.86	0.859	1.09	1.09
2×S-tagged KSHV ORF34 WT Y310A	0.96	0.956	0.17	0.173
2×S-tagged KSHV ORF34 WT G165A	0.68	0.68	0.02	0.022
2×S-tagged KSHV ORF34 WT Y215A	1.02	1.02	0.16	0.167
2×S-tagged KSHV ORF34 WT W160A	0.47	0.473	0.29	0.289
2×S-tagged KSHV ORF34 WT G182A	1.28	1.29	0.36	0.359
2×S-tagged KSHV ORF34 WT D154A	0.51	0.512	0.28	0.282
2×S-tagged KSHV ORF34 WT S168A	0.94	0.94	0.97	0.969
2×S-tagged KSHV ORF34 WT Y194A	0.64	0.645	0.003	0.003
2×S-tagged KSHV ORF34 WT C170A	0.32	0.325	0.05	0.057
2×S-tagged KSHV ORF34 WT R234A	0.74	0.74	0.77	0.775
2×S-tagged KSHV ORF34 WT C259A	0.03	0.027	–	–
2×S-tagged KSHV ORF34 WT V50A	0.86	0.861	1.11	1.11
